The values that follow are results of earlier work, collected in US5593962A, “Fibrillated calcitonin pharmaceutical compositions” (Ciba-Geigy Corporation, priority 1991, dated 1997).

The conditions of series [1]: physiological saline solutions or buffers.

Take human calcitonin: for the setting “after prolonged administration”, the “generation of neutralizing antibodies” value was “not generating neutralizing antibodies”. In addition, the “potency relative to salmon calcitonin” value (in vivo) is “less potent”. In series [1], the stability in solution result is reported as “not stable”.
